# Reference: publication PMC8615460
# Ends that are not written are not given here.
# B1: San1 peptide, radiolabeled (peptide)
# peptide: Ac-CGSRRGSYNASSGEQMLSRTGFFLVLIVGQPLHNPVK
# modifications: also: 32P phosphate added by cAMP-dependent protein kinase, residue not given here
# B2: San1 peptide, unlabeled (peptide)
# peptide: Ac-CGSRRGSYNASSGEQMLSRTGFFLVLIVGQPLHNPVK
# Assays:
# [1] = molecular target: full-length San1 (lysine residues changed to arginines) (Saccharomyces cerevisiae) (UniProt P22470)
# [2] = molecular target: San1_(1–303) (lysine residues changed to arginines) (Saccharomyces cerevisiae) (UniProt P22470)
# [3] = molecular target: San1_(1–303) (lysine residues changed to arginines) (Saccharomyces cerevisiae) (UniProt P22470); remark: listed apart in the source
binder,measurement,setting,value
B1,"multi-turnover ubiquitylation: fraction of peptide substrate ubiquitylated, 5 to 15 min, substrate to San1 ratios 6:1 to 18:1",[1],50%
same,"multi-turnover ubiquitylation: fraction of peptide substrate ubiquitylated, same incubation period and 18:1 substrate to ligase ratio",[2],15%
B2,limited proteolysis with chymotrypsin: stability of San1(1-303) with peptide substrate against without substrate,[3],30 fold
same,"limited proteolysis: fraction of radiolabeled San1(1-303) intact with chymotrypsin after 30 min, with excess peptide substrate",[3],50%
